Assay [1] concerns the target T1, human PD-1 (soluble antigen of the MSD assay, b-PD-1 monomer) (human, UniProt Q15116 25-170, limits assumed, biotinylated (b-PD-1), site not stated).
T1 construct: The antigen format of the 'avid' measurement is not described
Nature of the assay: MSD solution equilibrium titration, avid KD. As for the experimental part: (§1) Equilibrium affinity measurements are performed as previously described (Estep, P., et al., MAbs, 2013. 5(2): p. 270-8). Solution equilibrium titrations (SET) are performed in PBS+0.1% IgG-Free BSA (PBSF) where antigen (b-PD-1 monomer) is held constant at 10-100 pM and is incubated with 3- to 5-fold serial dilutions of Fab or mAbs starting at 5-100 nM (experimental condition is sample dependent). Antibodies diluted at 20 nM in PBS are coated onto standard bind MSD-ECL plates overnight at 4° C. or at room temperature for 30 min. Plates are blocked with BSA for 30 min whilst shaking at 700 rpm. Plates are then washed 3× with wash buffer (PBSF+0.05% Tween 20). SET samples are applied and incubated on the plates for 150 s with shaking at 700 rpm followed by one wash. Antigen captured on a plate is detected with 250 ng/mL sulfotag-labeled streptavidin in PBSF by incubation on the plate for 3 min. The plates are washed three times with wash buffer and are then read on the MSD Sector Imager 2400 instrument using 1× Read Buffer T with surfactant. The percent free antigen is plotted as a function of titrated antibody in Prism and fit to a quadratic equation to extract the KD. To improve throughput, liquid handling robots are used throughout MSD-SET experiments, including for SET sample preparation.

The target of assay [2] is T2, murine PD-1 on CHO cells (mouse, UniProt Q02242 25-288).
T2 sequence: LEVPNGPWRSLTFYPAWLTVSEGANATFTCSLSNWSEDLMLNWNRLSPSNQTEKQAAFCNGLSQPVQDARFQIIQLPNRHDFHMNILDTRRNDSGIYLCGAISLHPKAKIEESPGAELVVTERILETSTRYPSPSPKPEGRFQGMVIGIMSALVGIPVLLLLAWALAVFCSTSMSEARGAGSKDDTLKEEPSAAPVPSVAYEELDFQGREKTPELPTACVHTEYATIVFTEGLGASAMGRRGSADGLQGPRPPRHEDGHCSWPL
Nature of the assay: flow cytometry on CHO cells with murine PD-1. As for the experimental part: Cells are then washed 3×, and are incubated with a secondary antibody (PE-labelled, at final concentration of 5 μg/ml) in PBS 1% BSA for 30 min on ice (protected from light). Cells are washed 3× and analyzed via flow cytometry. Flow cytometry is performed on an Accuri C6 system (BD Biosciences) and MFIs are calculated on the C6 software. EC50 s are calculated on Graphpad software.
(In general: In flow cytometry, cells or beads pass a laser one at a time.)

Assay [3] addresses T3, human PD-1_HIS (human, UniProt Q15116 25-167, limits assumed).
T3 construct: not shown: His tag
Nature of the assay: bio-layer interferometry (ForteBio), human PD-1_HIS in solution, IgG on sensor tip. As for the experimental part: Briefly, ForteBio affinity measurements were performed by loading IgGs online onto AHQ sensors. Sensors were equilibrated off-line in assay buffer for 30 min and then monitored on-line for 60 seconds for baseline establishment. Sensors with loaded IgGs were exposed to 100 nM antigen for 5 min, afterwards they were transferred to assay buffer for 5 min for off-rate measurement. Kinetics was analyzed using the 1:1 binding model.
On the technique in general: BLI is a label-free optical method that tracks binding on a fibre tip over time.

Assay [4] deals with T1, human PD-1 (soluble antigen of the MSD …). Nature of the assay: MSD solution equilibrium titration, monovalent KD. As for the experimental part:
as §1

The target in assay [5] is T4, murine PD-1 (soluble antigen of the MSD assay) (mouse, UniProt Q02242 25-169, limits assumed).
T4 construct: also called mouse PD-1
T4 sequence: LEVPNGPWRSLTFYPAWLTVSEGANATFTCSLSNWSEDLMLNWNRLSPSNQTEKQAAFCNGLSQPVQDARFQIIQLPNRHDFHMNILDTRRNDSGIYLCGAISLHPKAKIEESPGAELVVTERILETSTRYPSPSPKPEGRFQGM
Nature of the assay: MSD solution equilibrium titration, monovalent KD. How it is done: as §1

Assay [6] addresses T5, human PD-1_Fc (human, UniProt Q15116 25-167, limits assumed).
T5 construct: not shown: Fc part
Nature of the assay: bio-layer interferometry (ForteBio), Fab in solution, human PD-1_Fc on sensor tip.

The target in assay [7] is cyno PD-1_Fc (cyno). Nature of the assay: bio-layer interferometry (ForteBio), Fab in solution, cyno PD-1_Fc on sensor tip.
Assay [8] addresses T6, murine PD-1_Fc (mouse, UniProt Q02242 25-167, limits assumed).
T6 construct: not shown: Fc part
T6 sequence: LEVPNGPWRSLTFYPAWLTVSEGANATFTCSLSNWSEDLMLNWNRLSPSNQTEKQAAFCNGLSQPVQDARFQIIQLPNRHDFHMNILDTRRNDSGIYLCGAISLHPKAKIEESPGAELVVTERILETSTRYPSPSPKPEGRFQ
Nature of the assay: bio-layer interferometry (ForteBio), Fab in solution, murine PD-1_Fc on sensor tip.

Assay [9] deals with T4, murine PD-1 (soluble antigen of the MSD …). Nature of the assay: MSD solution equilibrium titration, avid KD. How it is done:
as §1

The values that follow come from US20190040149A1 (Innovent, published 2019).

T5 sequence (Q15116 25-167 limits assumed): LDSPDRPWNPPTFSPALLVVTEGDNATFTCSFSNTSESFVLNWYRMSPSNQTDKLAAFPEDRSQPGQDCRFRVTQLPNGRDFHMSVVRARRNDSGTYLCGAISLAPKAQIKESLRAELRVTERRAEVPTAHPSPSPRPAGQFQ
T3 sequence (Q15116 25-167 limits assumed): as above
T1 sequence (Q15116 25-170 limits assumed): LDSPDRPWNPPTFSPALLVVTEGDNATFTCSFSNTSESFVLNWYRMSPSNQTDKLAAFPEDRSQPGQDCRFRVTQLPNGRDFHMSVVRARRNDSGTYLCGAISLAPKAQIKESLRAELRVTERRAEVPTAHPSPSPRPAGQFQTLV

B1: Antibody D, IgG1 format expressed in yeast (antibody, V domains shown)
VH: QVQLVQSGAEVKKPGASVKVSCKASGYTFEKYYMHWVRQAPGQGLEWMGIINPDGGSTGYAQKFQGRVTMTRDTSTSTVYMELSSLRSEDTAVYYCAKEGVADGYGLVDVWGQGTMVTVSS
VL: EIVLTQSPATLSLSPGERATLSCRASQSVSSYLAWYQQKPGQAPRLLIYDASKRATGIPARFSGSGSGTDFTLTISSLEPEDFAVYYCDQRNNWPLTFGGGTKVEIK
notes: Tested in IgG1 format, expressed in yeast
As a reminder, the Kd is a measure of binding affinity in units of concentration. Lower therefore signals tighter binding. One may read the EC50 as the concentration that produces a half-maximal response. Low values mean an effect from little substance, high ones a need for much substance. With B1, the Kd in [1] came out at 0.035 nM; in assay [3], 1.9 nM; in assay [4], 0.3 nM; in [5] it was 2.3 nM. This molecule yielded an EC50 in assay [2] of 9.26 nM.

B2: Fab of Antibody D (Fab, V domains shown)
VH: QVQLVQSGAEVKKPGASVKVSCKASGYTFEKYYMHWVRQAPGQGLEWMGIINPDGGSTGYAQKFQGRVTMTRDTSTSTVYMELSSLRSEDTAVYYCAKEGVADGYGLVDVWGQGTMVTVSS
VL: EIVLTQSPATLSLSPGERATLSCRASQSVSSYLAWYQQKPGQAPRLLIYDASKRATGIPARFSGSGSGTDFTLTISSLEPEDFAVYYCDQRNNWPLTFGGGTKVEIK
notes: Fab in solution in BLI; also called Antibody D (Fab in solution)
B2: the figures for the equilibrium dissociation constant (Kd) in assay [6], in assay [7] and in [8] were 3.4 nM, 4.4 nM and 7.8 nM, respectively.

B3: Fab of Antibody C (Fab, V domains shown)
VH: QVQLVQSGAEVKKPGASVKVSCKASGYTFTAQYMHWVRQAPGQGLEWMGIINPSGGETGYAQKFQGRVTMTRDTSTSTVYMELSSLRSEDTAVYYCAKEGVADGYGLVDVWGQGTMVTVSS
VL: EIVLTQSPATLSLSPGERATLSCRASQSVSSYLAWYQQKPGQAPRLLIYDASKRATGIPARFSGSGSGTDFTLTISSLEPEDFAVYYCDQRNNWPLTFGGGTKVEIK
notes: Fab in solution in BLI; also called Antibody C (Fab in solution)
As to B3, the dissociation constant (Kd) in [6] was determined as 2 nM; in assay [7], 2.4 nM; in assay [8], 10 nM.

B4: Fab of Antibody F (Fab, V domains shown)
VH: QVQLVQSGAEVKKPGASVKVSCKASGYTFSAYYMHWVRQAPGQGLEWMGIINPDGGSTGYAQKFQGRVTMTRDTSTSTVYMELSSLRSEDTAVYYCAKEGVADGYGLVDVWGQGTMVTVSS
VL: EIVLTQSPATLSLSPGERATLSCRASQSVSSYLAWYQQKPGQAPRLLIYDASKRATGIPARFSGSGSGTDFTLTISSLEPEDFAVYYCDQRNNWPLTFGGGTKVEIK
notes: Fab in solution in BLI; also called Antibody F (Fab in solution)
With B4, the dissociation constant Kd in assay [6] turned out to be 3 nM; in assay [7], 3.6 nM; in assay [8] it was 6.1 nM.

B5: Antibody B, IgG1 format expressed in yeast (antibody, V domains shown)
VH: QVQLVQSGAEVKKPGASVKVSCKASGYTFEGYYMHWVRQAPGQGLEWMGIINPEGGETSYAQKFQGRVTMTRDTSISTAYMELSRLRSDDTAVYYCAKEGVADGYGLVDVWGQGTMVTVSS
VL: EIVLTQSPATLSLSPGERATLSCRASQSVSSYLAWYQQKPGQAPRLLIYDASKRATGIPARFSGSGSGTDFTLTISSLEPEDFAVYYCDQRNNWPLTFGGGTKVEIK
notes: as for B1
For B5, the equilibrium dissociation constant (Kd) in assay [1] was determined as 0.014 nM; in assay [9] it was 0.38 nM; in assay [3], 1.4 nM; in assay [4], 0.13 nM; in [5] it was 2.7 nM. Also, the midpoint of the response in assay [2], the EC50, lay at 6.13 nM.

B6: Fab of Antibody E (Fab, V domains shown)
VH: QVQLVQSGAEVKKPGASVKVSCKASGYTFTSNYMHWVRQAPGQGLEWMGIINPSEGSTGYAQKFQGRVTMTRDTSTSTVYMELSSLRSEDTAVYYCAKEGVADGYGLVDVWGQGTMVTVSS
VL: EIVLTQSPATLSLSPGERATLSCRASQSVSSYLAWYQQKPGQAPRLLIYDASKRATGIPARFSGSGSGTDFTLTISSLEPEDFAVYYCDQRNNWPLTFGGGTKVEIK
notes: Fab in solution in BLI; also called Antibody E (Fab in solution)
B6: the dissociation constant Kd in assay [6] stood at 2.7 nM; in [7], 3.3 nM; in assay [8], 7.6 nM.

B7: Fab of Antibody B (Fab, V domains shown)
VH: QVQLVQSGAEVKKPGASVKVSCKASGYTFEGYYMHWVRQAPGQGLEWMGIINPEGGETSYAQKFQGRVTMTRDTSISTAYMELSRLRSDDTAVYYCAKEGVADGYGLVDVWGQGTMVTVSS
VL: EIVLTQSPATLSLSPGERATLSCRASQSVSSYLAWYQQKPGQAPRLLIYDASKRATGIPARFSGSGSGTDFTLTISSLEPEDFAVYYCDQRNNWPLTFGGGTKVEIK
notes: Fab in solution in BLI; also called Antibody B (Fab in solution)
With B7, the dissociation constant (Kd) in assay [6] worked out at 2.7 nM; in assay [7], 3.7 nM; in [8] it was 17 nM.

B8: Antibody F, IgG1 format expressed in yeast (antibody, V domains shown)
VH: QVQLVQSGAEVKKPGASVKVSCKASGYTFSAYYMHWVRQAPGQGLEWMGIINPDGGSTGYAQKFQGRVTMTRDTSTSTVYMELSSLRSEDTAVYYCAKEGVADGYGLVDVWGQGTMVTVSS
VL: EIVLTQSPATLSLSPGERATLSCRASQSVSSYLAWYQQKPGQAPRLLIYDASKRATGIPARFSGSGSGTDFTLTISSLEPEDFAVYYCDQRNNWPLTFGGGTKVEIK
notes: as for B1
For the molecule B8, the Kd in assay [1] was 0.018 nM; in assay [9], 0.44 nM; in [3] it was 1.6 nM; in assay [4], 0.17 nM; in assay [5], 1.2 nM. Moreover, the EC50 in assay [2] was 5.86 nM.

B9: Fab of Antibody A (Fab, V domains shown)
VH: QVQLVQSGAEVKKPGASVKVSCKASGYTFTSYYMHWVRQAPGQGLEWMGIINPSGGSTSYAQKFQGRVTMTRDTSTSTVYMELSSLRSEDTAVYYCAKEGVADGYGLVDVWGQGTMVTISS
VL: EIVLTQSPATLSLSPGERATLSCRASQSVSSYLAWYQQKPGQAPRLLIYDASKRATGIPARFSGSGSGTDFTLTISSLEPEDFAVYYCDQRNNWPLTFGGGTKVEIK
notes: Fab used in solution in the bio-layer interferometry columns 'Fab in solution'; also called Antibody A (Fab in solution)
For B9, the dissociation constant (Kd) in assay [6] came to 16 nM; in assay [7], 14 nM; in assay [8], 33 nM.
